# Measurements taken from US20060019335A1, “Compositions and methods to promote c-IAP autodegradation” (priority 2004, published 2006).
# T1: Livin β (Homo sapiens, UniProt Q96CA5)
# T1 construct: expressed in transfected cells; host or cells: HeLa
# T1 sequence (Q96CA5 1-280 isoform Q96CA5-2): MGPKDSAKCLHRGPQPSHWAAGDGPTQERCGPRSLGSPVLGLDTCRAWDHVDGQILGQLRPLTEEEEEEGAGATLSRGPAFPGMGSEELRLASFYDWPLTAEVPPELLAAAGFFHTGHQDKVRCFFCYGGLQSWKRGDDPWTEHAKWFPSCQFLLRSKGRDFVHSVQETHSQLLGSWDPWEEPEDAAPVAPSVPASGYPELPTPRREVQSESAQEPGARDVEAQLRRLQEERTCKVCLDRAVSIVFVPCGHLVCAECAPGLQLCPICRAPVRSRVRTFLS
# Tests used:
# XIAP = XIAP (Homo sapiens, UniProt P98170); assay: In vitro ubiquitylation assay of purified XIAP; assay type: biochemical
# Description: (§1) In vitro ubiquitylation assays—In vitro ubiquitylation assays were carried out as previously described (29). IAP proteins (200 nM) were incubated with or without Smac polypeptide for 2 hours at 30° C. in a reaction system containing 50 mM Tris-HCl (pH 7.5), 50 mM NaCl, 2 mM Mg-ATP, 20 μM mammalian ubiquitin, 100 nM rabbit ubiquitin-activating enzyme (E1) and 400 nM of recombinant human ubiquitin-conjugating enzymes (E2). The reactions were stopped by adding equal volumes of 2×SDS sample loading buffer followed by Western Blot analysis.
# To determine whether Smac promotes auto-ubiquitylation of XIAP, purified XIAP (without tag) was incubated for 2 hours at 30° C. either with or without different concentrations of Smac or with Smac ΔA in the reconstituted ubiquitylation reaction system (Ub Mix) consisting of 50 mM Tris-HCl (pH 7.5), 50 mM NaCl, 2 mM Mg-ATP, 20 μM mammalian ubiquitin, 100 nM rabbit ubiquitin-activating enzyme (E1) and 400 nM UbCH6 (E2). The reactions were stopped by adding equal volumes of 2×SDS sample loading buffer and the products were subjected to SDS-PAGE followed by immunoblotting with anti-XIAP antibody. The purified XIAP was active in directing poly-ubiquitylation. But the auto-ubiquitylation of XIAP was not enhanced by Smac.
# Livin β = molecular target: T1, Livin β; assay: Co-transfection of HeLa cells with Livin β and Smac plasmids, Western blot; assay type: cell-based; conditions: data not shown
# Description: Transfection of cultured Cells—HeLa cells were grown in DMEM supplemented with 10% fetal bovine serum. Cells were seeded onto 6-well plates the day before transfection and transfected at 70% confluence by using Lipofectin combined with Plus reagent (Invitrogen) according to the manufacture's protocols. The IAP expression plasmids (3 μg each for c-IAP1, c-IAP2 and XIAP, and 250 ng each for Livin αand Livin β) together with 2.5 μg of Smac expression plasmids or pcDNA3.1(−) blank plasmid were used for single-well transfection in the absence of antibiotics. The cells were harvested 12 hours after the transfection and lysed with 0.5% CHAPS in 20 mM HEPES (pH 7.4), 10 mM KCl, 1 mM MgCl2 and 1 mM DTT. The lysates were centrifuged and the protein concentrations of the supernatants were quantified by the modified Bradford method (36).
# Western Blot analysis—Proteins were resolved by SDS-PAGE and transferred to nitrocellulose filters. The filters were blocked with 5% milk and probed with antibodies as indicated. The signals were visualized with the enhanced chemiluminescence method.
# In the current study, Livin was also transiently expressed in HeLa cells to determine the ubiquitylation activity (see FIG. 3B). Briefly, Livin α WT or H269A mutant plasmids together with Smac WT or Smac ΔA mutant, or with pcDNA3.1(−) blank plasmid, were co-transfected into HeLa cells. […]
# c-IAP2 = molecular target: T2, c-IAP2 (Homo sapiens, UniProt Q13489); assay: In vitro ubiquitylation assay of c-IAP2; assay type: biochemical; conditions: data not shown
# T2 construct: produced not only the expected full length c-IAP1 or c-IAP2; expressed in transfected cells; host or cells: HeLa
# Description: as §1
# The observation that Smac promotes c-IAP1 auto-ubiquitylation in HeLa cells was further confirmed in vitro by using UbCH6 as the E2.
# Chain of XIAP (P98170 whole entry): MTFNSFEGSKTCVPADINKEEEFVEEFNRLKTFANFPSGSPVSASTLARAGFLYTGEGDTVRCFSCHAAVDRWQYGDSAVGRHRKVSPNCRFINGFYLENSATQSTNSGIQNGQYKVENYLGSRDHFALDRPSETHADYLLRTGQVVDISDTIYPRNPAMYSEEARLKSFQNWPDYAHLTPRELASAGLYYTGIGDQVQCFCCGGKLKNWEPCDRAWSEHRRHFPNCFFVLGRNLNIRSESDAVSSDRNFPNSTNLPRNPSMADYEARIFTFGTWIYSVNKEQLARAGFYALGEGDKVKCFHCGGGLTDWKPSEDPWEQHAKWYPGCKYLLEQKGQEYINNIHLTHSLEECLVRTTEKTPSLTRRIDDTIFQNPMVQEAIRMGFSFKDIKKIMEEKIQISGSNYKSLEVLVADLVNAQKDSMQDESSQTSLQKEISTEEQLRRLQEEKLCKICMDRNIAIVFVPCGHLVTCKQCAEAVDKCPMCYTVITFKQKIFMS
# T2 sequence (Q13489 whole entry): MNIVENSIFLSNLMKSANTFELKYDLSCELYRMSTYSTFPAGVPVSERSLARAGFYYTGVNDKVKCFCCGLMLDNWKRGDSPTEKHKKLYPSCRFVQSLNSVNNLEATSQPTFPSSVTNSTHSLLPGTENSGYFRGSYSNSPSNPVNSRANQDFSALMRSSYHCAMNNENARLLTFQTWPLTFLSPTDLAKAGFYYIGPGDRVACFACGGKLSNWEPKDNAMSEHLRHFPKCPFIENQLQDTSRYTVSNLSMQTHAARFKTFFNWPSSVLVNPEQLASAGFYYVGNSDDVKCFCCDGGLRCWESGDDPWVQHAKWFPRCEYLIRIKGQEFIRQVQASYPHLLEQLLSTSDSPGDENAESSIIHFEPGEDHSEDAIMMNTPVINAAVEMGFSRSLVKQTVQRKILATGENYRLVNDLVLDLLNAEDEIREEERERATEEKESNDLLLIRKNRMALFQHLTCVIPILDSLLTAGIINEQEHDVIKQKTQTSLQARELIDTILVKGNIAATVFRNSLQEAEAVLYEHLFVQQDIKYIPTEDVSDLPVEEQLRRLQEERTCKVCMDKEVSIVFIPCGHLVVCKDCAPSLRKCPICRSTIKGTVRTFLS
Molecule,"amount of ubiquitylated forms of XIAP with a high molecular weight of ~150 kDa (XIAP; UbCH6 as E2, FIG. 6)","auto-ubiquitylation of XIAP in vitro (XIAP; purified XIAP without tag, UbCH6 as E2, 2 hours at 30° C., FIG. 6)","transfection results of Livin β (auto-ubiquitylation, degradation) (Livin β)",c-IAP2 auto-ubiquitylation in vitro (c-IAP2)
"Smac: wild type (WT) Smac polypeptide from Homo sapiens, SEQ ID NO 1, 239 amino acids; second mitochondria-derived activator of caspase (protein, listed as Homo sapiens) MAALKSWLSRSVTSFFRYRQCLCVPVVANFKKRCFSELIRPWHKTVTIGFGVTLCAVPIAQKSEPHSLSSEALMRRAVSLVTDSTSTFLSQTTYALIEAITEYTKAVYTLTSLYRQYTSLLGKMNSEEEDEVWQVIIGARAEMTSKHQEYLKLETTWMTAVGLSEMAAEAAYQTGADQASITARNHIQLVKLQVEEVHQLSRKAETKLAEAQIEELRQKTQEEGEERAESEQEAYLRED",slightly reduced,not enhanced,substantially similar to that of Livin α,–
"Smac ΔA: Smac mutant lacking the initial Ala (Ala deletion mutant polypeptide), used as negative control (protein, UniProt Q9NR28 22-239, looked up, variant A1*) Diablo IAP-binding …: LCVPVVANFKKRCFSELIRPWHKTVTIGFGVTLCVPIAQKSEPHSLSSEALMRRAVSLVTDSTSTFLSQTTYALIEAITEYTKAVYTLTSLYRQYTSLLGKMNSEEEDEVWQVIIGARAEMTSKHQEYLKLETTWMTAVGLSEMAAEAAYQTGADQASITARNHIQLVKLQVEEVHQLSRKAETKLAEAQIEELRQKTQEEGEERAESEQEAYLRED",–,–,–,did not promote the E3 activity
